Source: FireProtDB (doi:10.1093/protein/11.3.213)

Conditions: Escherichia phage lambda; pH 6.6; 25 °C; Thermal; Fluorescence; phosphate 0.1 M; reversible: yes; whole UniProt chain shown

B1: Endolysin wild type, P03706 (protein)
chain: MVEINNQRKAFLDMLAWSEGTDNGRQKTRNHGYDVIVGGELFTDYSDHPRKLVTLNPKLKSTGAGRYQLLSRWWDAYRKQLGLKDFSPKSQDAVALQQIKERGALPMIDRGDIRQAIDRCSNIWASLPGAGYGQFEHKADSLIAKFKEAGGTVREIDV
For B1, which unfolding free energy is on record?
Its unfolding free energy is 3.54 kcal/mol.
